The record followed here is PMC8217331 (Neuron, 2021).

The chains are these.
B1: GST-AChR-α (loop between 3rd and 4th transmembrane domains) (domain or fragment, UniProt P04756 317-428, looked up)
chain: NTHHRSPSTHIMPEWVRKVFIDTIPNIMFFSTMKRPSRDKQEKRIFTEDIDISDISGKPGPPPMGFHSPLIKHPEVKSAIEGVKYIAETMKSDQESNNAAEEWKYVAMVMDH
modifications: CF555 label (Mix-n-Stain CF555)
B2: GST-β-dystroglycan (aa 773Y-893P) (domain or fragment, UniProt Q62165 773-893, looked up)
chain: YRKKRKGKLTLEDQATFIKKGVPIIFADELDDSKPPPSSSMPLILQEEKAPLPPPEYPNQSMPETTPLNQDTVGEYTPLRDEDPNAPPYQPPPPFTAPMEGKGSRPKNMTPYRSPPPYVPP
modifications: CF555 label (Mix-n-Stain CF555)
B3: Rapsn-EGFP, purified (natural protein, UniProt P12672 1-412, looked up)
chain: MGQDQTKQQIEKGLQLYQSNQTEKALQVWMKVLEKGSDLVGRFRVLGCLVTAHSEMGRYKEMLKFAVVQIDTARGLEDADFLLESYLNLARSNEKLCEFHKTISYCKTCLGLPGTRAGAQLGGQVSLSMGNAFLGLSLFQKALESFEKALRYAHNNDDTMLECRVCCSLGSFYAQVKDYEKALFFPCKAAELVNDYGKGWSLKYRAMSQYHMAVAYRLLGHLGSAMECCEESMKIALQHGDRPLQALCLLCFADIHRSRGDLETAFPRYDSAMSIMTEIGNRLGQVHVLLGVAKCWMARKVQDKALDAIEKAQDLAEEVGNKLSQLKLHCLSESIYRSKGLQRELRTHVVRFHECVEETELYCGLCGESIGERNSRLQALPCSHIFHLRCLQNNGTRSCPNCRRSSMKPGFV
B4: GST-MACF1 (aa 1M-293I) (domain or fragment, UniProt Q9QXZ0 1-293, looked up)
chain: MSSSDEETLSERSCRSERSCRSERSYRSERSGSLSPCPPGDTLPWNLPLHEQKKRKSQDSVLDPAERAVVRVADERDRVQKKTFTKWVNKHLMKVRKHINDLYEDLRDGHNLISLLEVLSGIKLPREKGRMRFHRLQNVQIALDFLKQRQVKLVNIRNDDITDGNPKLTLGLIWTIILHFQISDIYISGESGDMSAKEKLLLWTQKVTAGYTGVKCTNFSSCWSDGKMFNALIHRYRPDLVDMERVQVQSNRENLEQAFEVAERLGVTRLLDAEDVDVPSPDEKSVITYVSSI
modifications: CF555 label (Mix-n-Stain CF555)
B5: GST-AChR-β (loop between 3rd and 4th transmembrane domains) (domain or fragment, UniProt P09690 333-469, looked up)
chain: HHRSPHTHQMPFWVRQIFIHKLPPYLGLKRPKPERDQLPEPHHSLSPRSGWGRGTDEYFIRKPPSDFLFPKLNRFQPESSAPDLRRFIDGPTRAVGLPQELREVISSISYMARQLQEQEDHDALKEDWQFVAMVVDR
modifications: CF555 label (Mix-n-Stain CF555)

For assay [1], the target named is B3. The assay is described as follows: co-condensation into droplets.
The target of assay [2] is α-actinin2 (aa 1M-894L), purified ( (the printed UniProt entry …, UniProt Q9JI91 1-894, CF555 label (Mix-n-Stain CF555))). The assay is described as follows: co-condensation into droplets.
Chain of α-actinin2 (aa 1M-894L), purified ( (Q9JI91 whole entry): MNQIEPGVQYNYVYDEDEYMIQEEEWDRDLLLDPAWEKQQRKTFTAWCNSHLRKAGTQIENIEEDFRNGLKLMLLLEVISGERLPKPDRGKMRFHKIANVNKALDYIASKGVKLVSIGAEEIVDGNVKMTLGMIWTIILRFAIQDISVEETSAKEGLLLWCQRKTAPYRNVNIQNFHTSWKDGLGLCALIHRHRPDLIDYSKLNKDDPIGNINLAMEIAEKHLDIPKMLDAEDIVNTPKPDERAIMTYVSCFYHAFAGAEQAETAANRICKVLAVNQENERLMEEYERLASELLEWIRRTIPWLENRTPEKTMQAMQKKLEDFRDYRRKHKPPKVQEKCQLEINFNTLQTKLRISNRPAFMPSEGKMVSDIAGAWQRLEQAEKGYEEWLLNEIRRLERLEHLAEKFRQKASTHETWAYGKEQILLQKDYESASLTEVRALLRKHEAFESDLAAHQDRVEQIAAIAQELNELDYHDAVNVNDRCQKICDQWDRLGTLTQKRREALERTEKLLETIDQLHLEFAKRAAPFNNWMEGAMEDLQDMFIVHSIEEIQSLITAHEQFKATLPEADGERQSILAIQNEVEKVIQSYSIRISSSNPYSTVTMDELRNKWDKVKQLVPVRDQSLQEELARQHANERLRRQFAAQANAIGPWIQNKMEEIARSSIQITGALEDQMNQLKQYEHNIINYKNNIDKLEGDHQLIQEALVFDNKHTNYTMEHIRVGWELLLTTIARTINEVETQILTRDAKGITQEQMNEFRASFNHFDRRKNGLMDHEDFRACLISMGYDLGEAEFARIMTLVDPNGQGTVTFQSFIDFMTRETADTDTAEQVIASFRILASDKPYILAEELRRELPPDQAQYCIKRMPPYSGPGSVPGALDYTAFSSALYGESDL

B1: the binding result in assay [1] is given as “binds”.
Take B2: in assay [1], the binding result is given as “binds”.
For the molecule B3, the binding result in assay [2] is reported as “binds”.
Regarding B4, the binding result in assay [1] is given as “binds”.
Turning to B5, the binding result in assay [1] is listed as “binds”.
